US20240352127A1

Key:
[1] = target: human PD-L1 on cells (human) (UniProt Q9NZQ7); experiment: FACS staining of MDA-MB-231 cells with control antibody (expression profile), triplicates
[2] = target: human PD-L1 on cells (human) (UniProt Q9NZQ7); experiment: FACS staining of HCT116 cells with control antibody (expression profile), triplicates

Sequence of human PD-L1 on cells (human) (Q9NZQ7 19-290 limits assumed): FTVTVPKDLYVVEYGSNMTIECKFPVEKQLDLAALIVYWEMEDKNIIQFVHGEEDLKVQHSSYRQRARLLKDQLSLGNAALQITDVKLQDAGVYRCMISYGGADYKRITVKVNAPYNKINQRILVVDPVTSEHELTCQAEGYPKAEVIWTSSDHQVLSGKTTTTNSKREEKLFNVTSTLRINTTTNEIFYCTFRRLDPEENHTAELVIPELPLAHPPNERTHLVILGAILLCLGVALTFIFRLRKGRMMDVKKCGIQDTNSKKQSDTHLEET

- MFI [1]: 74600 MFI
- MFI [2]: 10900 MFI
Substance: anti-PD-L1 RG7446 MPDL3280A (antibody)
